This passage reports MFI results from patent US20240383983A1 (ABL BIO, published 2024).

Test [1] deals with T1, human B7-H4 expressed on cells (CHOK-1 B7-H4, SK-BR3, CAMA-1, MDA-MB-468, MX-1, OVCAR-3) (human, UniProt Q7Z7D3 25-282).
T1 construct: whole, on cells; also called B7-H4 expressed cell line; B7-H4 positive cancer cell lines
T1 sequence (looked up): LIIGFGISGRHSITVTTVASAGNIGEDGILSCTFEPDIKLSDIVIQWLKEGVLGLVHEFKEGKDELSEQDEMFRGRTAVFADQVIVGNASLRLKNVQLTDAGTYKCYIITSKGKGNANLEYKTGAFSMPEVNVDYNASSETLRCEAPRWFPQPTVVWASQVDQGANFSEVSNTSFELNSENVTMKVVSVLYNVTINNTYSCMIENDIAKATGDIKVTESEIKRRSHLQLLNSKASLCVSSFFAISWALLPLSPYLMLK
As to the kind of experiment: FACS on CAMA-1 cells, 100 nM antibody, FITC anti-mouse IgG Fc detection (FL1-H). How it is done:
(§1) To evaluate the antigen binding property, the mouse antibody candidates generated according to Preparation Example 1-1 were analyzed for their bindings to B7-H4 expressed cells (SK-BR3, CAMA-1 and MDA-MB-468) or B7-H4 negative expressed cell (PANC-1). Briefly, each cells were treated with the 100 nM of indicated antibodies at 4° C. for 1 hr. After washing by FACS buffer (1% BSA in PBS), Cells were incubated with the FITC anti-mouse IgG Fc antibody at 4° C. for 1 hr and then subjected to FACS analysis. As shown FIG. 1, anti-B7-H4 mouse antibodies bound to B7-H4 expressed SK-BR3, CAMA-1 and MDA-MB-468 cell lines but not B7-H4 negative PANC-1. […] Based on the ranking results, 16E3H3 clone was selected for humanization.

Test [2] deals with T1, human B7-H4 expressed on cells (CHOK-1 …). As to the kind of experiment: FACS on MDA-MB-468 cells, 100 nM antibody, FITC anti-mouse IgG Fc detection (FL1-H). Here is the method:
as §1

For test [3] the target is unchanged. As to the kind of experiment: FACS on SK-BR3 cells, 100 nM antibody, FITC anti-mouse IgG Fc detection (FL1-H). How it is done:
as §1

B1: 73B4F10 (mouse monoclonal anti-B7-H4 antibody) (antibody, V domains shown)
VH: QVQLQQPGTELVKPGASVKLSCKASGYTFTSYWMHWVKQRPGQGLERIGHINPSNGGTNYNEKFKKKATLTVDKSSSTAYMQLSSLTSEDSAVYYCARSEFYYGTVFAYWGQGTLVTVSA
VL: DVLMTQTPLSLPVSLGDQASISCRSSQSIVHGNGNTYLEWYLQKPGQSPKLLIYKVSNRFSGVPDRFSGSGSGTDFTLKISRVEAEDLGVYYCFQGSHDPPTFGGGTKLEIK
notes: Mouse hybridoma antibody, detected with anti-mouse IgG Fc; also called 73B4F10 (from mouse)
Take B1: the MFI was 29 in test [1], 20.1 in test [2] and 5.95 in test [3].

B2: 16E3H3 (mouse monoclonal anti-B7-H4 antibody) (antibody, V domains shown)
VH: QIQLVHSGPELKKPGETVKISCKASGYPFTTYGMNWVKQAPGKGLKWMGWIDTYSGVPTYADDFKGRFAFSLETSASTAYLQINNLKNEDTATYFCARRSFWYFDVWGTGTTVTVSS
VL: DVVMTQTPLSLPVSLGDQASISCRSSQSLVHSNGNTYLHWYLQKPGQSPKLLIYKVSNRFSGVPDRFSGSGSGTDFTLKIRRVEAEDLGVYFCSQSTHVPWTFGGGTKLEIK
notes: Mouse hybridoma antibody, detected with anti-mouse IgG Fc; also called 16E3H3 (from mouse); 16E3H3 clone
As to B2, the MFI is 463 in test [1], 77.6 in test [2] and 25.3 in test [3].

B3: 23B6C2 (mouse monoclonal anti-B7-H4 antibody) (antibody, V domains shown)
VH: QVTLKESGPGILQPSQTLSLTCSFSGFSLSTFGMGVGWIRQPSGKGLEWLAHIWWDDDKYYNSALKSRLTISKETSKNQIFLKIANVDTTDTATYYCVRKDYYGYRGFAYWGQGTLVTVSA
VL: QLVLTQSSSASFSLGASAKLTCTLSSQHTTYTIEWYQQQPLKPPKYVMELKKDGSHSTGDGIPDRFSGSSSGADRYLCISNIQPEDEAIYICGVGDTIKEQFVYVFGGGTKVTVL
notes: Mouse hybridoma antibody, detected with anti-mouse IgG Fc; also called 23B6C2 (from mouse)
Regarding B3, the results for the MFI in test [1], in test [2] and in test [3] were 47.4, 22 and 7.85, respectively.
